B1: FADD (other, UniProt Q13158 1-208, looked up)
chain: MDPFLVLLHSVSSSLSSSELTELKFLCLGRVGKRKLERVQSGLDLFSMLLEQNDLEPGHTELLRELLASLRRHDLLRRVDDFEAGAAAGAAPGEEDLCAAFNVICDNVGKDWRRLARQLKVSDTKIDSIEDRYPRNLTERVRESLRIWKNTEKENATVAHLVGALRSCQMNLVADLVQEVQQARDLQNRSGAMSPMSWNSDASTSEAS
notes: also called Flag-tagged FADD; AU1-tagged FADD
B2: caspase-3 (enzyme, UniProt P42574 1-277, looked up)
chain: MENTENSVDSKSIKNLEPKIIHGSESMDSGISLDNSYKMDYPEMGLCIIINNKNFHKSTGMTSRSGTDVDAANLRETFRNLKYEVRNKNDLTREEIVELMRDVSKEDHSKRSSFVCVLLSHGEEGIIFGTNGPVDLKKITNFFRGDRCRSLTGKPKLFIIQACRGTELDCGIETDSGVDDDMACHKIPVEADFLYAYSTAPGYYSWRNSKDGSWFIQSLCAMLKQYADKLEFMHILTRVNRKVATEFESFSFDATFHAKKQIPCIVSMLTKELYFYH
notes: also called caspase-3 precursor

Columns and labels:
Casper (192-480) [1] = target: T1, Casper (192-480) (human, UniProt O15519 192-480); assay: co-immunoprecipitation in 293 cells
T1 construct: also called C-terminal protease-like domain of Casper
T1 sequence (O15519 192-480): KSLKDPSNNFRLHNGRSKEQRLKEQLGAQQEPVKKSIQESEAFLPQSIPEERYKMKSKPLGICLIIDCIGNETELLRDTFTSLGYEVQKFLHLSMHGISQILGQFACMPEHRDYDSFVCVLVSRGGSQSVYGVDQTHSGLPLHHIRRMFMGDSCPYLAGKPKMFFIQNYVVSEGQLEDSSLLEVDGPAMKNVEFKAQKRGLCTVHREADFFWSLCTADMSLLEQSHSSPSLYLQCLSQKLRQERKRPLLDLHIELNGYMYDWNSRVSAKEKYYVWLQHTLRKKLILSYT

Casper (192-480) [2] = target: T1, Casper (192-480); assay: anti-Flag immunoprecipitation, caspase-3 immunoblot, 293 cells
CrmA = target: T2, CrmA (UniProt P07385 1-341); assay: co-transfection and co-immunoprecipitation in mammalian cells
T2 construct: also called Myc-CrmA

Binder	binding result (Casper (192-480) [1])	binding result (Casper (192-480) [2])	binding result (CrmA)
B1	no binding		
B2		binds	no binding
